Results from patent EP1096011A1, “Microbiological production method for alpha-l-aspartyl-l-phenylalanine” (Holland Sweetener Company V.o.F., priority 1999, dated 2001).

B1: Asp-Leu-His6, Asp-Leu dimodular peptide synthetase from Bacillus subtilis ATCC 21332 surfactin synthetase (srfA-B), His6-tagged (Bacillus subtilis subsp. … (protein)
chain: PNVRLSDVDLLSSAETAALLEERHMTQITEATFAALFEKQAQQTPDHSAVKAGGNLLTYRELDEQANQLAHHLRAQGAGNEDIVAIVMDRSAEVMVSILGVMKAGAAFLPIDPDTPEERIRYSLEDSGAKFAVVNERNMTAIGQYEGIIVSLDDGKWRNESKERPSSISGSRNLAYVIYTSGTTGKPKGVQIEHRNLTNYVSWFSEEAGLTENDKTVLLSSYAFDLGYTSMFPVLLGGGELHIVQKETYTAPDEIAHYIKEHGITYIKLTPSLFHTIVNTASFAKDANFESLRLIVLGGEKIIPTDVIAFRKMYGHTEFINHYGPTEATIGAIAGRVDLYEPDAFAKRPTIGRPIANAGALVLNEALKLVPPGASGQLYITGQGLARGYLNRPQLTAERFVENPYSPGSLMYKTGDVVRRLSDGTLAFIGRADDQVKIRGYRIEPKEIETVMLSLSGIQEAVVLAVSEGGLQELCAYYTSDQDIEKAELRYQLSLTLPSHMIPAFFVQVDAIPLTANGKTDRNALPKPNAAQSGGKALAAPETALEESLCRIWQKTLGIEAIGIDDNFFDLGGHSLKGMMLIANIQAELEKSVPLKALFEQPTVRQLAAYMEASAVSGGHQVLKPADKQDMYPLSSAQKRMYVLNQLDRQTISYNMPSVLLMEGELDISRLRDSLNQLVNRHESLRTSFMEANGEPVQRIIEKAEVDLHVFEAKEDEADQKIKEFIRPFDLNDAPLIRAALLRIEAKKHLLLLDMHHIIADGVSRGIFVKELALLYKGEQLPEPTLHYKDFAVWQNEAEQKERMKEHEAYWMSVLSGELPELDLPLDYARPPVQSFKGDTIRFRTGSETAKAVEKLLAETGTTLHMVLHAVFHVFLSKISGQRDIVIGSVTAGRTNADVQDMPGMFVNTLALRMEAKEQQTFAELLELAKQTNLSALEHQEYPFEDLVNQLDLPRDMSRNPLFNVMVTTENPDKEQLTLQNLSISPYEAHQGTSKFDLTLGGFTDENGIGLQLEYATDLFAKETAEKWSEYVLRLLKAVADNPNQPLSSLLLVTETEKQALLEAWKGKALPVPTDKTVHQLFEETVQRHKDRPAVTYNGQSWTYGELNAKANRLARILMDCGISPDDRVGVLTKPSLEMSAAVLGVLKAGAAFVPIDPDYPDQRIEYILQDSGAKLLLKQEGISVPDSYTGDVILLDGSRTILSLPLDENDEGNPETAVTAENLAYMIYTSGTTGQPKGVMVEHHALVNLCFWHHDAFSMTAEDRSAKYAGFGFDASIWEMFPTWTIGAELHVIDEAIRLDIVRLNDYFETNGVTITFLPTQLAEQFMELENTSLRVLLTGGDKLKRAVKKPYTLVNNYGPTENTVVATSAEIHPEEGSLSIGRAIANTRVYILGEGNQVQPEGVAGELCVAGRGLARGYLNREDETAKRFVADPFVPGERMYRTGDLVKWVNGGIEYIGRIDQQVKVRGYRIELSEIEVQLAQLSEVQDAAVTAVKDKGGNTAIAAYVTPETADIEALKSTLKETLPDYMIPAFWVTLNELPVTANGKVDRKALPEPDIEAGSGEYKAPTTDMEELLAGIWQDVLGMSEVGVTDNFFSLGGDSIKGIQMASRLNQHGWKLEMKDLFQHPTIEELTQYVERAE

What was measured:
Assay in all cases: ATP-PPi exchange reaction (amino acid activation)
[1] = test system: Asp-Phe-His6, hybrid Asp-Phe dipeptide synthetase (Asp module of Bacillus subtilis ATCC 21332 srfA-B, Phe minimal module of Bacillus brevis ATCC 8185 tycA) …; format: biochemical, Bacillus subtilis ATCC 21332 / Bacillus brevis ATCC 8185; details: 37°C
Description: (§1) Specificity of amino acid activation was determined indirectly by incorporation of labelled ^32PPi into ATP during reverse reaction (Lee, S.G. & Lipmann, F.; Tyrocidine synthetase system; Methods Enzymol. 43, 1975, p.585-602). For this purpose 20 pmol of each enzyme was incubated with 1 mM amino acid, 1 mM ATP, 0,1 mM PPi, 50 mM HEPES, 100 mM NaCl and 10 mM MgCl2 and 2 mCi ^32PPi at 37°C in a total volume of 100 µL. Reactions were quenched after 10 min by adding 500 µL of a solution containing 100 mM NaPPi, 560 mM perchloric acid and 1,2% (w/v) active charcoal. The mixture was centrifuged at 13000 rpm for 1 min. The pellet was washed and resuspended twice with 1 mL H2O.
(§2) Incorporation of labelled ATP (adsorbed to the charcoal) was detected by measuring radioactivity of the precipitate. […] KM values for Asp and ATP were determined to be 3,5 mM and 0,9 mM respectively. KM values for Leu and ATP were detected to be 0,3 mM and 0,6 mM, respectively.
(§3) The KM value for Phe was determined to be about 50 µM.

[2] = test system: Asp-Phe-TE-His6, hybrid Asp-Phe dipeptide synthetase with integrated srfA-C thiolation and TE domain, His6-tagged; format: biochemical, Bacillus subtilis ATCC 21332 / Bacillus brevis ATCC 8185; details: 37°C
Description: as §1, §2, §3

[3] = substrate: Nc1ncnc2c1ncn2[C@@H]1O[C@H](COP(=O)(O)OP(=O)(O)OP(=O)(O)O)[C@@H](O)[C@H]1O; format: biochemical, Bacillus subtilis ATCC 21332; details: other: ATP-PPi exchange, 37°C
Description: as §1, §2

[4] = substrate: CC(C)C[C@H](N)C(=O)O; format: biochemical, Bacillus subtilis ATCC 21332; details: other: ATP-PPi exchange, 37°C
Description: as §1, §2

[5] = substrate: N[C@@H](CC(=O)O)C(=O)O; format: biochemical, Bacillus subtilis ATCC 21332; details: other: ATP-PPi exchange, 37°C
Description: as §1, §2

Row | Molecule | Km [1] | Km [2] | Km ([3]; ATP value paired with Asp (Asp activation)) | Km ([3]; ATP value paired with Leu (Leu activation)) | Km [4] | Km [5]
1 | N[C@@H](Cc1ccccc1)C(=O)O [Phe, L-phenylalanine] | ~50 µM | ~50 µM | – | – | – | –
2 | B1 | – | – | 900 µM | 600 µM | 300 µM | 3500 µM
